B1: HDV Ribozyme (parent)
chain: GGCCGGCAUGGUCCCAGCCUCCUCGCUGGCGCCGGCUGGGCAACAUUCCGAGGGGACCGUCCCCUCGGUAAUGGCGAAUGGGACCCA

Variants of: B1
Test: self-cleavage, relative activity (ratio to wild type); higher = more cleavage; co-transcriptional

Row | Variant | self-cleavage
1 | C3G G53A | 0.742
2 | C3G G53U | 0.549
3 | C3G C86U | 0.885
4 | C3U C24A | 0.328
5 | C3U U37C | 1.08
6 | C4U G6C | 0
7 | C4U G39C | 0.0536
8 | C3U G5U | 0.107
9 | C3U G5C | 0.0123
10 | C4U U12A | 0.111
11 | C4U U12C | 0.145
12 | C4U A87U | 0.817
13 | C4U A87G | 0.599
14 | C3U U79A | 0.591
15 | C3U C26A | 0.923
16 | C3U A70U | 0.678
17 | C3U A70G | 0.973
18 | C4G G50U | 0.527
19 | C4A G34U | 0.831
20 | C4A C85G | 0.393
21 | C3U G17C | 0.0297
22 | C3U G17U | 0.193
23 | G5A C22A | 0.0426
24 | C4G G6C | 0.214

Row | Variant | self-cleavage
25 | C4U U27G | 0.453
26 | C4U U27A | 0.246
27 | C4U A16U | 0.462
28 | C4U A16G | 0.862
29 | C4G G10C | 0.237
30 | C4G G10U | 0.0779
31 | C3U C66A | 0.69
32 | C3U C66G | 0.758
33 | C4A U47G | 0.201
34 | C4A C41A | 0.117
35 | C4U U79C | 0.136
36 | C4A G31A | 0.0415
37 | C4G U37C | 0.375
38 | C4G G5C | 0.0594
39 | C3G U12C | 0
40 | C4A A8G | 0.192
41 | C3G G81U | 0.185
42 | C3G G81A | 0.201
43 | C3G G81C | 0.0831
44 | C4G G17A | 0.0791
45 | C4G G17C | 0.0354
46 | G5A G25C | 0.0923
47 | G5A G25U | 0.0339
48 | G5A C63G | 0.0755

Row | Variant | self-cleavage
49 | G5A C63A | 0.277
50 | G5A C49A | 0.302
51 | G5A C49U | 0.18
52 | C3U G25C | 0.113
53 | C4A G39U | 0.14
54 | C3U A71G | 0.89
55 | C4U G17C | 0.147
56 | C3U C7U | 0.529
57 | C4A G38U | 0.0449
58 | C4G C84A | 0.225
59 | C4A G6A | 0.0573
60 | C4A G6U | 0.0791
61 | G5A C44U | 0.0627
62 | G5A C44A | 0
63 | C4U A8G | 0.762
64 | C4U A8U | 0.415
65 | C4U C13A | 0.122
66 | C4A U27A | 0.189
67 | C4A U27C | 0
68 | C3G G35C | 1.48
69 | C4U U37A | 0
70 | C3U C62G | 0.415
71 | C4U G73A | 0.293
72 | C4G A8C | 0.0898

Row | Variant | self-cleavage
73 | G5A A51U | 0.104
74 | G5A A51G | 0.203
75 | C3U G73A | 0.366
76 | C3U G73U | 0.257
77 | C4A U79G | 0
78 | C4A U79C | 0
79 | C4G A83C | 0.102
80 | C3U G55U | 0.805
81 | C3U G55C | 0.867
82 | C4G C7U | 0.0234
83 | C4U G10U | 0.163
84 | C3U C58U | 0.696
85 | C3U G29C | 0.0601
86 | C4A C48U | 0.151
87 | C4A C48A | 0.225
88 | C4A U69A | 0.185
89 | C4G U12A | 0
90 | C4A U46C | 0.111
91 | C4A U46A | 0.151
92 | C4A U46G | 0.0615
93 | G5A C84G | 0.0875
94 | C4G C66G | 0.727
95 | C3U C18G | 0.0779
96 | C4U C15G | 0.262

Row | Variant | self-cleavage
97 | C4A G10A | 0.0554
98 | C4A G10C | 0.141
99 | C4G C19A | 0
100 | C4G C30U | 0.0615
101 | G5A A56U | 0.106
102 | G5A A56G | 0.225
103 | C4G A42C | 0
104 | C4G U65G | 0.231
105 | G5A A70U | 0.19
106 | C4U C33A | 0.0845
107 | G5A C18U | 0
108 | G5A C18G | 0
109 | G5A C48A | 0.0437
110 | G5A C48G | 0.101
111 | C4U C44A | 0.578
112 | C4U C44U | 0.394
113 | C3U A51C | 0.831
114 | C3U A51U | 0.992
115 | C3G U27G | 0.479
116 | C3U C30A | 0.223
117 | C3U C30G | 0
118 | C3U C30U | 0.345
119 | C4A A45G | 0.138
120 | C4A A45C | 0.0519

Row | Variant | self-cleavage
121 | C4U G68A | 0.604
122 | C4U G68C | 0.635
123 | C4G G59U | 0.475
124 | C4G U47A | 0.346
125 | C3G G28C | 0.107
126 | C3U U47C | 0.564
127 | C3U U47A | 0.969
128 | C4U G25U | 0.0287
129 | G5A A71U | 0.231
130 | C4U A77U | 0.415
131 | C4A C57G | 0.277
132 | C4A C75A | 0.157
133 | C4A C75U | 0.102
134 | C4G C58A | 0.429
135 | C4A C13A | 0.0282
136 | C4U G50U | 0.656
137 | C3U A78G | 0.446
138 | C3U A78U | 0.117
139 | G5A C66A | 0.173
140 | C4U C75U | 0.155
141 | C4U C75A | 0.128
142 | C4A C63G | 0.0755
143 | C3G G55C | 0.682
144 | G5A G11U | 0.0665

Row | Variant | self-cleavage
145 | G5A C41U | 0.277
146 | C4G U23G | 0.0386
147 | C4A C66G | 0.289
148 | C4G C57U | 0.529
149 | C3U C15G | 0.6
150 | C4A C19U | 0.0203
151 | C3U G6A | 0.245
152 | C3U G6U | 0.0934
153 | C3U G76C | 0.708
154 | C4U U60G | 0.939
155 | G5A C85A | 0.113
156 | C4U G38A | 0.0978
157 | C4U G38U | 0.13
158 | C4A C49G | 0.302
159 | C4G A87U | 0.225
160 | C3G U20A | 0.0755
161 | C3G U20G | 0
162 | C4G G31C | 0.108
163 | C4A C21G | 0
164 | C3G G10U | 0.193
165 | C4U G40U | 0.48
166 | C3U G50C | 0.686
167 | C4U A70C | 0.482

From the RNAGym collection of RNA variant scans (doi:10.7554/elife.80360)
